Measured values: the Immune Epitope Database (IEDB)

Tests used:
Test in all cases: IEDB peptide-MHC binding, purified MHC/competitive/radioactivity; filed as Kd, often an IC50 or EC50 that approximates it; ≥ and ≤ were set here for values at or beyond the usual limits of such assays
Details in all cases: source organism: Severe acute respiratory syndrome coronavirus 2
[1] = molecular target: HLA-B*07:02
[2] = molecular target: HLA-A*02:01
[3] = molecular target: HLA-B*18:01
[4] = molecular target: HLA-B*15:01
[5] = molecular target: HLA-B*51:01
[6] = molecular target: HLA-A*26:01
[7] = molecular target: HLA-B*44:02
[8] = molecular target: HLA-B*44:03
[9] = molecular target: HLA-A*01:01

| Sequence | Kd [1] | Kd [2] | Kd [3] | Kd [4] | Kd [5] | Kd [6] | Kd [7] | Kd [8] | Kd [9] |
| --- | --- | --- | --- | --- | --- | --- | --- | --- | --- |
| APHGHVMVEL | 6.1 nM | – | – | – | – | – | – | – | – |
| APRITFGGP | 59 nM | 893 nM | – | – | – | – | – | – | – |
| DEFVVVTV | ≥ 52800 nM | 13000 nM | 0.5 nM | 2050 nM | 12800 nM | 9550 nM | 2800 nM | 1280 nM | – |
| EEFEPSTQYEY | – | – | 1.1 nM | 78 nM | – | 18800 nM | 50 nM | 0.41 nM | – |
| EIKESVQTF | – | – | – | 4930 nM | – | 7.8 nM | ≥ 37200 nM | – | – |
| ELPDEFVVV | – | 460 nM | – | – | – | 6860 nM | – | – | – |
| ELPDEFVVVTV | – | 1.6 nM | 1130 nM | ≥ 35100 nM | – | 72 nM | – | – | – |
| FASEAARVV | 8550 nM | 495 nM | ≥ 49500 nM | 2550 nM | 207 nM | 734 nM | – | – | – |
| FGDDTVIEV | – | – | – | 2380 nM | ≥ 45700 nM | – | – | – | – |
| HADQLTPTW | – | – | 3350 nM | 13400 nM | – | – | 5260 nM | 1800 nM | – |
| KNIDGYFKIY | – | 11800 nM | – | 1450 nM | – | – | – | – | – |
| KRVDWTIEY | – | – | – | 356 nM | ≥ 22700 nM | – | – | – | – |
| LEDKAFQL | – | 3890 nM | 35 nM | 14700 nM | – | – | ≥ 35400 nM | 208 nM | – |
| NATNVVIKV | – | – | – | – | 536 nM | ≥ 43400 nM | – | 8110 nM | – |
| SLEDKAFQL | – | 20 nM | – | 1580 nM | – | – | – | – | – |
| STSAFVETV | 8860 nM | 26 nM | – | 10400 nM | – | 12100 nM | – | – | 12700 nM |
| VATSRTLSY | – | – | – | 267 nM | – | 11800 nM | – | – | 18800 nM |
| VGYLQPRTF | – | – | 707 nM | 777 nM | – | – | – | – | – |
